The values below come from patent US6033903, “Method of expressing and secreting soluble extracellular domains of human gonadotropin hormone receptors” (Applied Research Systems, Ars Holding N.V., dated 2000).

The target of the assay is human follicle stimulating hormone (recombinant hFSH) (human, UniProt P01215, ^125 I label on the tracer form (which chain and residue is not stated); unlabelled in the cold competitor, the affinity resin and the cell assay). In words: 125I-hFSH radioligand binding, summary of Example 2.

B1: soluble hFSHR-EC secreted from baculovirus-infected insect cells (gp67 signal peptide fusion, pAcGP67-hFSHR-EC) (receptor)
chain: ADQCHHRICHCSNRVFLCQESKVTEIPSDLPRNAIELRFVLTKLRVIQKGAFSGFGDLEKIEISQNDVLEVIEADVFSNLPKLHEIRIEKANNLLYINPEAFQNLPNLQYLLISNTGIKHLPDVHKIHSLQKVLLDIQDNINIHTIERNSFVGLSFESVILWLNKNGIQEIHNCAFNGTQLDELNLSDNNNLEELPNDVFHGASGPVILDISRTRIHSLPSYGLENLKKLRARSTYNLKKLPTLEKLVALMEASLTYPSHCCAFANWRRQISELHPICNKSILRQEVDYMTQTRGQRSSLAEDNESSYSRGFDMTYTEFDYDLCNEVVDVTCSPKPDAFNPCEDIMGYNILR
Take B1: the binding result was “binds”.
